# Reference: article PMC11323482, “Role of the antiparallel double-stranded filament form of FtsA in activating the Escherichia coli divisome” (mBio, 2024)
# How the values were obtained:
# [1] = biological target: the molecule itself; experiment: cross-linking; in vivo site-specific cysteine crosslinking in E. coli cells with BMB or BMH (0.5 mM, 10 min, cold PBS), quenched with beta-mercaptoethanol; SDS-PAGE and immunoblot with anti-FtsA; dividing cells: ftsZ84(ts) strains 10 and 20 min after return to 30 °C, ftsQ1ts and zipA1ts at 30 °C, ftsA° strain at 30 or 42 °C, WM4952 at 37 °C, WM4953
# [2] = biological target: the molecule itself; experiment: cross-linking; in vivo cysteine crosslinking in ftsQ1(ts) cells (WM7148) shifted to the nonpermissive 42 °C, compared with 30 °C; SDS-PAGE and anti-FtsA immunoblot
# [3] = biological target: the molecule itself; experiment: cross-linking; in vivo cysteine crosslinking in zipA1(ts) cells (WM7149) shifted to the nonpermissive 42 °C, compared with 30 °C; SDS-PAGE and anti-FtsA immunoblot
Protein,"DS filament crosslinking at Q155C, percent of WT levels [1]",fold decrease of the crosslinked band's intensity at 42 °C against 30 °C [2],fold decrease of the crosslinked band's intensity at 42 °C against 30 °C [3]
"FtsA^M71A with Q155C (natural protein, E. coli, UniProt P0ABH0 1-420, looked up, FtsA, E. coli, M71A, measured by crosslinking at Q155C; M71A introduced into pWM7049 or pWM7239; source: E. coli, expressed from plasmid, in living cells) MIKATDRKLVVGLEIGTAKVAALVGEVLPDGMVNIIGVGSCPSRGMDKGGVNDLESVVKCVQRAIDQAELAADCQISSVYLALSGKHISCQNEIGMVPISEEEVTQEDVENVVHTAKSVRVRDEHRVLHVIPQEYAIDYQEGIKNPVGLSGVRMCAKVHLITCHNDMAKNIVKAVERCGLKVDQLIFAGLASSYSVLTEDERELGVCVVDIGGGTMDIAVYTGGALRHTKVIPYAGNVVTSDIAYAFGTPPSDAEAIKVRHGCALGSIVGKDESVEVPSVGGRPPRSLQRQTLAEVIEPRYTELLNLVNEEILQLQEKLRQQGVKHHLAAGIVLTGGAAQIEGLAACAQRVFHTQVRIGAPLNITGLTDYAQEPYYSTAVGLLHYGKESHLNGEAEVEKRVTASVGSWIKRLNSWLRKEF",~35%,–,–
"FLAG-FtsA^Q155C (natural protein, E. coli, UniProt P0ABH0 1-420, looked up, FtsA, E. coli, with the cysteine substitution Q155C; made by site-directed mutagenesis on pWM2785 (pDSW210-FLAG-FtsA); Native FtsA is also present in some strains; also called pDSW210-FLAG-FtsA^Q155C; source: E. coli, expressed from plasmid pDSW210 (IPTG), in living cells; not shown: FLAG, N-terminal, kept) MIKATDRKLVVGLEIGTAKVAALVGEVLPDGMVNIIGVGSCPSRGMDKGGVNDLESVVKCVQRAIDQAELMADCQISSVYLALSGKHISCQNEIGMVPISEEEVTQEDVENVVHTAKSVRVRDEHRVLHVIPQEYAIDYQEGIKNPVGLSGVRMCAKVHLITCHNDMAKNIVKAVERCGLKVDQLIFAGLASSYSVLTEDERELGVCVVDIGGGTMDIAVYTGGALRHTKVIPYAGNVVTSDIAYAFGTPPSDAEAIKVRHGCALGSIVGKDESVEVPSVGGRPPRSLQRQTLAEVIEPRYTELLNLVNEEILQLQEKLRQQGVKHHLAAGIVLTGGAAQIEGLAACAQRVFHTQVRIGAPLNITGLTDYAQEPYYSTAVGLLHYGKESHLNGEAEVEKRVTASVGSWIKRLNSWLRKEF",–,3 fold,7.5 fold
